In patent US20250152704A1 (PARAGON THERAPEUTICS, published 2025):
Substitutions are numbered along the chain they refer to. One block for each binder: values may come before it.

Columns and labels:
FcRn-GFP = test: cell-based or functional assay
mouse FcRn [1] = biological target: T1, mouse FcRn (mouse, UniProt Q61559 22-297; P01887 21-119, limits assumed); test: SPR, pH 7.4
T1 sequence (looked up) 1: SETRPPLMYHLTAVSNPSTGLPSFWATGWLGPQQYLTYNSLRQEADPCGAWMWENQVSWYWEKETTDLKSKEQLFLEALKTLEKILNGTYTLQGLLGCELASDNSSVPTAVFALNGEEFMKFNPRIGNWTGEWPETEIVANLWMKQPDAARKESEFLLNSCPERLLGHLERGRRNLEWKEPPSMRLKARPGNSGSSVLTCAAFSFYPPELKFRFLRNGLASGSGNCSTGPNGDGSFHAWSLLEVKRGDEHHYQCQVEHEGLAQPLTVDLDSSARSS
T1 sequence (looked up) 2: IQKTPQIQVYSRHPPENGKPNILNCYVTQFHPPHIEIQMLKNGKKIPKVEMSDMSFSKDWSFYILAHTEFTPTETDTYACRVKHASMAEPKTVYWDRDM

[2] = biological target: T2, Recombinant in-house Human FcRn protein (human, UniProt P55899 24-297; P61769 21-119, limits assumed); test: SPR, pH 7.4
T2 construct: also called huFCRN; HuFcRn

rat FcRn [3] = biological target: T3, rat FcRn (rat, UniProt P13599 23-298; P07151 21-119, limits assumed); test: SPR, pH 7.4
T3 sequence (looked up) 1: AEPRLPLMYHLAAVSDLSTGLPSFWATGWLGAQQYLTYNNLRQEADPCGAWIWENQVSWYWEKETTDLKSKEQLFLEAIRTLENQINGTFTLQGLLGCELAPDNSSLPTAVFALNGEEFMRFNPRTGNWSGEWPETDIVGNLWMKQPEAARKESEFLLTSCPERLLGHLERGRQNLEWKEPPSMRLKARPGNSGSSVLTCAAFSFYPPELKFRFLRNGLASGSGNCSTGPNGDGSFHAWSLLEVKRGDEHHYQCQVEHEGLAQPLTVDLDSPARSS
T3 sequence (looked up) 2: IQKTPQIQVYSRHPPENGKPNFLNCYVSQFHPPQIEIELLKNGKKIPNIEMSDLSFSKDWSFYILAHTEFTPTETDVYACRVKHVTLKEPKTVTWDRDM

cynomolgus monkey FcRn [4] = biological target: T4, cynomolgus monkey FcRn (cynomolgus monkey, UniProt Q8SPV9 24-297; Q8SPW0 21-119, limits assumed); test: SPR, pH 7.4
T4 construct: also called cynoFcRn

[5] = biological target: T2, Recombinant in-house Human FcRn protein; test: competitive binding ELISA, pH 6.0, in triplicate; competitor IgG
[6] = biological target: T2, Recombinant in-house Human FcRn protein; test: competitive binding ELISA, pH 6.0; competitor Efgartigimod (Fc Fragment 1)
mouse FcRn [7] = biological target: T1, mouse FcRn; test: SPR, pH 6
[8] = biological target: T2, Recombinant in-house Human FcRn protein; test: SPR, pH 6
rat FcRn [9] = biological target: T3, rat FcRn; test: SPR, pH 6
cynomolgus monkey FcRn [10] = biological target: T4, cynomolgus monkey FcRn; test: SPR, pH 6

B1: Fc Fusion Molecule 22 (Fc fusion)
chain 1: DKTHTCPPCPAPELLGGPSVFLFPPKPKDTLYITREPEVTCVVVDVSHEDPEVKFNWYVDGVEVHNAKTKPREEQYNSTYRVVSVLTVLHQDWLNGKEYKCKVSNKALPAPIEKTISKAKGQPREPQVCTLPPSRDELTKNQVSLSCAVKGFYPSDIAVEWESNGQPENNYKTTPPVLDSDGSFFLVSKLTVDKSRWQQGNVFSCSVMHEALKYHYTQKSLSLSPGGGGGSGGGGSGGGGSEVQLLESGGGLVQPGGSLRLSCAASGFTFRSFGMSWVRQAPGKGPEWVSSISGSGSDTLYADSVKGRFTISRDNSKNTLYLQMNSLRPEDTAVYYCTIGGSLSRSSQGTLVTVSS
chain 2: DKTHTCPPCPAPELLGGPSVFLFPPKPKDTLYITREPEVTCVVVDVSHEDPEVKFNWYVDGVEVHNAKTKPREEQYNSTYRVVSVLTVLHQDWLNGKEYKCKVSNKALPAPIEKTISKAKGQPREPQVYTLPPCRDELTKNQVSLWCLVKGFYPSDIAVEWESNGQPENNYKTTPPVLDSDGSFFLYSKLTVDKSRWQQGNVFSCSVMHEALKYHYTQKSLSLSPG
- Average (n = 3) Residual FcRn (FcRn-GFP): 20

B2: Fc Fusion Molecule 43 (Fc fusion)
chain 1: B1 chain 1 with F273A
chain 2: B1 chain 2
- Average (n = 3) Residual FcRn (FcRn-GFP): 12

B5: Fc Fusion Molecule 46 (Fc fusion)
chain 1: DKTHTCPPCPAPELLGGPSVFLFPPKPKDTLYITREPEVTCVVVDVSHEDPEVKFNWYVDGVEVHNAKTKPREEQYNSTYRVVSVLTVLHQDWLNGKEYKCKVSNKALPAPIEKTISKAKGQPREPQVCTLPPSRDELTKNQVSLSCAVKGFYPSDIAVEWESNGQPENNYKTTPPVLDSDGSFFLVSKLTVDKSRWQQGNVFSCSVMHEALKYHYTQKSLSLSPGGGGGSGGGGSGGGGSGGGGSGGGGSGGGGSGGGGSGGGGSEVQLLESGGGLVQPGGSLRLSCAASGFTFRSAGMSWVRQAPGKGPEWVSSISGSGSDTLYADSVKGRFTISRDNSKNTLYLQMNSLRPEDTAVYYCTIGGSLSRSSQGTLVTVSS
chain 2: B1 chain 2
- Average (n = 3) Residual FcRn (FcRn-GFP): 44

B6: Fc Fusion Molecule 44 (Fc fusion)
chain 1: DKTHTCPPCPAPELLGGPSVFLFPPKPKDTLYITREPEVTCVVVDVSHEDPEVKFNWYVDGVEVHNAKTKPREEQYNSTYRVVSVLTVLHQDWLNGKEYKCKVSNKALPAPIEKTISKAKGQPREPQVCTLPPSRDELTKNQVSLSCAVKGFYPSDIAVEWESNGQPENNYKTTPPVLDSDGSFFLVSKLTVDKSRWQQGNVFSCSVMHEALKYHYTQKSLSLSPGGGGGSGGGGSGGGGSGGGGSGGGGSGGGGSEVQLLESGGGLVQPGGSLRLSCAASGFTFRSAGMSWVRQAPGKGPEWVSSISGSGSDTLYADSVKGRFTISRDNSKNTLYLQMNSLRPEDTAVYYCTIGGSLSRSSQGTLVTVSS
chain 2: B1 chain 2
- Average (n = 3) Residual FcRn (FcRn-GFP): 21

B7: Fc Fusion Molecule 42 (Fc fusion)
chain 1: B5 chain 1 with A298F
chain 2: B1 chain 2
- Average (n = 3) Residual FcRn (FcRn-GFP): 48

B8: Fc Fragment 13 (other)
chain: B1 chain 2 with C134S, W146T, K213R, Y214F
notes: Human IgG1 Fc fragment; substitutions already in the entry
- Kd (mouse FcRn [1]): 2.73 nM
- Kd [2]: 248 nM
- Kd (rat FcRn [3]): 16.2 nM
- Kd (cynomolgus monkey FcRn [4]): 1370 nM
- IC50 [5]: 1.13 nM
- IC50 [6]: 4.71 nM
- Kd (mouse FcRn [7]): 0.2 nM
- Kd [8]: 9.53 nM
- Kd (rat FcRn [9]): 4.33 nM
- Kd (cynomolgus monkey FcRn [10]): 41.7 nM

Now from value to binder:

- Average (n = 3) Residual FcRn (FcRn-GFP): 29
B3: Fc Fusion Molecule 45 (Fc fusion)
chain 1: DKTHTCPPCPAPELLGGPSVFLFPPKPKDTLYITREPEVTCVVVDVSHEDPEVKFNWYVDGVEVHNAKTKPREEQYNSTYRVVSVLTVLHQDWLNGKEYKCKVSNKALPAPIEKTISKAKGQPREPQVCTLPPSRDELTKNQVSLSCAVKGFYPSDIAVEWESNGQPENNYKTTPPVLDSDGSFFLVSKLTVDKSRWQQGNVFSCSVMHEALKYHYTQKSLSLSPGGGGGSGGGGSGGGGSGGGGSGGGGSGGGGSGGGGSEVQLLESGGGLVQPGGSLRLSCAASGFTFRSAGMSWVRQAPGKGPEWVSSISGSGSDTLYADSVKGRFTISRDNSKNTLYLQMNSLRPEDTAVYYCTIGGSLSRSSQGTLVTVSS
chain 2: B1 chain 2

- Average (n = 3) Residual FcRn (FcRn-GFP): 31
B4: Fc Fusion Molecule 41 (Fc fusion)
chain 1: B6 chain 1 with A288F
chain 2: B1 chain 2

- Kd (mouse FcRn [1]): 2.34 nM
- Kd [2]: 249 nM
- Kd (rat FcRn [3]): 12.4 nM
- Kd (cynomolgus monkey FcRn [4]): 1600 nM
- IC50 [5]: 2.09 nM
- IC50 [6]: 3.85 nM
- Kd (mouse FcRn [7]): 0.288 nM
- Kd [8]: 8.26 nM
- Kd (rat FcRn [9]): 3.94 nM
- Kd (cynomolgus monkey FcRn [10]): 36.1 nM
B9: Fc Fragment 14 (other)
chain: B1 chain 2 with C134S, W146T, M208L, K213R, Y214F
notes: as for B8
